The data set “SEC” deals with the molecule itself. Kind of data set: SEC. (In gel filtration, larger molecules generally elute earlier.)
The data set “crystal structure” deals with the molecule itself. Kind of data set: crystal structure.

B1: CHUP1_611-1004 (CHUP1-C), C-terminal fragment of CHLOROPLAST UNUSUAL POSITIONING 1 (domain or fragment)
chain: ITATGDQSNESNESNEGKASENAATVTKMKLVDIEKRPPRVPRPPPRSAGGGKSTNLPSARPPLPGGGPPPPPPPPGGGPPPPPGGGPPPPPPPPGALGRGAGGGNKVHRAPELVEFYQSLMKRESKKEGAPSLISSGTGNSSAARNNMIGEIENRSTFLLAVKADVETQGDFVQSLATEVRASSFTDIEDLLAFVSWLDEELSFLVDERAVLKHFDWPEGKADALREAAFEYQDLMKLEKQVTSFVDDPNLSCEPALKKMYKLLEKVEQSVYALLRTRDMAISRYKEFGIPVDWLSDTGVVGKIKLSSVQLAKKYMKRVAYELDSVSGSDKDPNREFLLLQGVRFAFRVHQFAGGFDAESMKAFEELRSRAKTESGDNNNNNNNNSNEEESVN
Take B1: in the data set “SEC”, the “stoichiometry N” value stood at 2.

B2: CHUP1_716-982, C-terminal fragment of CHUP1 (domain or fragment)
chain: NKVHRAPELVEFYQSLMKRESKKEGAPSLISSGTGNSSAARNNMIGEIENRSTFLLAVKADVETQGDFVQSLATEVRASSFTDIEDLLAFVSWLDEELSFLVDERAVLKHFDWPEGKADALREAAFEYQDLMKLEKQVTSFVDDPNLSCEPALKKMYKLLEKVEQSVYALLRTRDMAISRYKEFGIPVDWLSDTGVVGKIKLSSVQLAKKYMKRVAYELDSVSGSDKDPNREFLLLQGVRFAFRVHQFAGGFDAESMKAFEELRSRA
As for B2, in “crystal structure”, the binding result is reported as “binds”.

In general, stoichiometry N refers to the number of molecules, sites or subunits per partner or assembly.

For the origin of these results see article doi:10.1101/2020.01.14.905984 (bioRxiv, 2020).
